For the assay, the target named is CXCR4 receptor (human, UniProt P61073 1-352). The experiment in a line: cell-based or functional assay.

Two molecules from patent US20080227720A1 (MOREHOUSE SCHOOL OF MEDICINE, published 2008) can be followed below.

CXCR4 receptor, sequence (P61073 whole entry): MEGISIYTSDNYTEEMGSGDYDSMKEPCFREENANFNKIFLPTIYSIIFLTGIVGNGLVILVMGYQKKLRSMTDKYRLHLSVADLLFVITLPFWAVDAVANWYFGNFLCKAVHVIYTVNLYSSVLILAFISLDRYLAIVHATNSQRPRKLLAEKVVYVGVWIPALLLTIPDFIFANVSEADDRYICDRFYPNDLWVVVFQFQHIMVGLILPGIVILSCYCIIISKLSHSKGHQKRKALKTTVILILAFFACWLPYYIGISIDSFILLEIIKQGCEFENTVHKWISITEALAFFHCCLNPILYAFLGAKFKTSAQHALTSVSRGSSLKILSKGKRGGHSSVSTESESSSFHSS

B1: Gp120 9 mer peptide spanning amino acids 315-324 (GRAFYTTKY) (peptide)
peptide: GRAFYTTKY
Take B1: the “apoptosis relative to the full gp 120 protein at an equivalent molar ratio” value is ~60 % of the apoptosis observed from the full gp 120 protein.

B2: Nef 10 mer peptide spanning the 50-60 motif (NAACAWLEAQ) (peptide)
peptide: NAACAWLEAQ
For B2, the “apoptosis relative to the full Nef protein at an equivalent molar ratio” value is ~100 % of the apoptosis observed for the full Nef protein.
